Assay results taken from patent publication US20210130436A1.

Legend:
Experiment in all cases: cell-based or functional assay
[1] = molecular target: CD28 on Jurkat/IL2 reporter cells (human) (UniProt P10747)
[2] = molecular target: PD-L1 on K562/OKT3/PD-L1 artificial antigen presenting cells (UniProt Q9NZQ7)
[3] = molecular target: PD-L1 (human) (UniProt Q9NZQ7)
[4] = molecular target: CD28 (human) (UniProt P10747)

PD-L1 on K562/OKT3/PD-L1 artificial antigen presenting cells, sequence (Q9NZQ7 19-290): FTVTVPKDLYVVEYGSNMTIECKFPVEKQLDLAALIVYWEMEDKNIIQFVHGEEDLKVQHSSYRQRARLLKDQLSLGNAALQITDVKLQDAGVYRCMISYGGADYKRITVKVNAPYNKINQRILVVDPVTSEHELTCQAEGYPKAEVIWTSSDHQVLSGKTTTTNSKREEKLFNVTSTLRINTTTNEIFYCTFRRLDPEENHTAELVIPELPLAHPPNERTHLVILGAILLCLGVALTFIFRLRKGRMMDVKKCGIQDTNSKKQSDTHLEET
PD-L1 (human), sequence (Q9NZQ7 19-290): as above
WT CD80 IgV-Fc (inert) (Fc fusion), sequence (chain): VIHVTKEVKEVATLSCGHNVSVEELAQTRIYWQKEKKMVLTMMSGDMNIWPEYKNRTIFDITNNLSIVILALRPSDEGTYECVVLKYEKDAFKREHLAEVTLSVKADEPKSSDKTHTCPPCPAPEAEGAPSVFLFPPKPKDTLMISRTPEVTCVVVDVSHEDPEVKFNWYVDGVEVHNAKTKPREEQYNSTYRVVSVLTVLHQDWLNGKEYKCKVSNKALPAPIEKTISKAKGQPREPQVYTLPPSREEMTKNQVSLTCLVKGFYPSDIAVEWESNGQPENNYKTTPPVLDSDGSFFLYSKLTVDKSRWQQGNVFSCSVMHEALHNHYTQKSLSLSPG

| Substance | RLU, Jurkat/IL2 reporter; K562/OKT3/PD-L1 aAPC, Combination of FcR and/or PD-L1 Dependent Cross-Linking; 0.6 nM [3] [RLU] | RLU, Jurkat/IL2 reporter; K562/OKT3/PD-L1 aAPC, Combination of FcR and/or PD-L1 Dependent Cross-Linking; 1.9 nM [3] [RLU] | RLU, Jurkat/IL2 reporter; K562/OKT3/PD-L1 aAPC, Combination of FcR and/or PD-L1 Dependent Cross-Linking; 5.6 nM [3] [RLU] | RLU, Jurkat/IL2 reporter; K562/OKT3/PD-L1 aAPC, Combination of FcR and/or PD-L1 Dependent Cross-Linking; 16.7 nM [3] [RLU] | RLU, Jurkat/IL2 reporter; K562/OKT3/PD-L1 aAPC, Combination of FcR and/or PD-L1 Dependent Cross-Linking; 50 nM [3] [RLU] | IL-2 release, primary T cells; K562/OKT3 (No PD-L1); 1 nM [4] | IL-2 release, primary T cells; K562/OKT3 (No PD-L1); 10 nM [4] | IL-2 release, primary T cells; K562/OKT3 (No PD-L1); 100 nM [4] | RLU, Jurkat/IL2 reporter; K562/OKT3 aAPC, FcR Dependent Cross-Linking (No PD-L1); 0.6 nM [4] [RLU] | RLU, Jurkat/IL2 reporter; K562/OKT3 aAPC, FcR Dependent Cross-Linking (No PD-L1); 1.9 nM [4] [RLU] | RLU, Jurkat/IL2 reporter; K562/OKT3 aAPC, FcR Dependent Cross-Linking (No PD-L1); 5.6 nM [4] [RLU] | RLU, Jurkat/IL2 reporter; K562/OKT3 aAPC, FcR Dependent Cross-Linking (No PD-L1); 16.7 nM [4] [RLU] | RLU, Jurkat/IL2 reporter; K562/OKT3 aAPC, FcR Dependent Cross-Linking (No PD-L1); 50 nM [4] [RLU] | other results |
| --- | --- | --- | --- | --- | --- | --- | --- | --- | --- | --- | --- | --- | --- | --- |
| CD80 E35D/T41S/M43I/M47L/A71G IgV-Fc (inert) (Fc fusion) | – | – | – | – | – | – | – | – | – | – | – | – | – | Fold Increase over WT CD80-IgV-Fc (RLU, Jurkat/IL2 + K562/OKT3/PD-L1 reporter assay, 50 nM) [1]: 7.5 fold; Relative Luciferase Units (RLU), Jurkat/IL2 + K562/OKT3/PD-L1 reporter assay, CD80-Fc Conc 50 nM [1]: 1540 RLU; Fold Increase over WT CD80-IgV-Fc (RLU, Jurkat/IL2 + K562/OKT3/PD-L1 reporter assay, 50 nM) [2]: 7.5 fold; Relative Luciferase Units (RLU), Jurkat/IL2 + K562/OKT3/PD-L1 reporter assay, CD80-Fc Conc 50 nM [2]: 1540 RLU |
| CD80 I30V/E35D/M47V/A71G/A91V IgV-Fc (inert) (Fc fusion) | – | – | – | – | – | – | – | – | – | – | – | – | – | Fold Increase over WT CD80-IgV-Fc (RLU, Jurkat/IL2 + K562/OKT3/PD-L1 reporter assay, 50 nM) [1]: 7.3 fold; Relative Luciferase Units (RLU), Jurkat/IL2 + K562/OKT3/PD-L1 reporter assay, CD80-Fc Conc 50 nM [1]: 1500 RLU; Fold Increase over WT CD80-IgV-Fc (RLU, Jurkat/IL2 + K562/OKT3/PD-L1 reporter assay, 50 nM) [2]: 7.3 fold; Relative Luciferase Units (RLU), Jurkat/IL2 + K562/OKT3/PD-L1 reporter assay, CD80-Fc Conc 50 nM [2]: 1500 RLU |
| CD80 E35D/D46V/M47L/V68M/L85Q/E88D IgV-Fc (inert) (Fc fusion) | – | – | – | – | – | – | – | – | – | – | – | – | – | Fold Increase over WT CD80-IgV-Fc (RLU, Jurkat/IL2 + K562/OKT3/PD-L1 reporter assay, 50 nM) [1]: 7.1 fold; Relative Luciferase Units (RLU), Jurkat/IL2 + K562/OKT3/PD-L1 reporter assay, CD80-Fc Conc 50 nM [1]: 1460 RLU; Fold Increase over WT CD80-IgV-Fc (RLU, Jurkat/IL2 + K562/OKT3/PD-L1 reporter assay, 50 nM) [2]: 7.1 fold; Relative Luciferase Units (RLU), Jurkat/IL2 + K562/OKT3/PD-L1 reporter assay, CD80-Fc Conc 50 nM [2]: 1460 RLU |
| variant CD80 IgV-Fc (effector) E35D (Fc fusion) | 920 | 1110 | 1400 | 1760 | 2270 | 7600 | 7990 | 8380 | 1400 | 1330 | 1300 | 1320 | 1200 | – |
| variant CD80 IgV-Fc (effector) E35D/M47I (Fc fusion) | 2830 | 3600 | 4700 | 5320 | 5700 | 11100 | 21600 | 27200 | 1780 | 2130 | 3650 | 5790 | 7140 | – |
| variant CD80 IgV-Fc (effector) E35D/M47L (Fc fusion) | 2780 | 3850 | 4730 | 5410 | 5040 | 14600 | 23600 | 26800 | 2120 | 3040 | 5620 | 7740 | 8680 | – |
| variant CD80 IgV-Fc (inert) E35D/M47L (Fc fusion) | – | – | – | – | – | – | – | – | – | – | – | – | – | IL-2 release, primary T cells; K562/OKT3/PD-L1; 1 nM [3]: 268; IL-2 release, primary T cells; K562/OKT3/PD-L1; 10 nM [3]: 2700; IL-2 release, primary T cells; K562/OKT3/PD-L1; 100 nM [3]: 7530; IL-2-luciferase RLU, Jurkat + CHO/OKT3/PD-L1 aAPC, 0.6 nM [4]: 1040 RLU; IL-2-luciferase RLU, Jurkat + CHO/OKT3/PD-L1 aAPC, 1.9 nM [4]: 1730 RLU; IL-2-luciferase RLU, Jurkat + CHO/OKT3/PD-L1 aAPC, 5.6 nM [4]: 2580 RLU; IL-2-luciferase RLU, Jurkat + CHO/OKT3/PD-L1 aAPC, 16.7 nM [4]: 3070 RLU; IL-2-luciferase RLU, Jurkat + CHO/OKT3 aAPC (no PD-L1), 5.6 nM [4]: 633 RLU; IL-2-luciferase RLU, Jurkat + CHO/OKT3 aAPC (no PD-L1), 16.7 nM [4]: 731 RLU; IL-2-luciferase RLU, Jurkat + CHO/OKT3 aAPC (no PD-L1), 50 nM [4]: 817 RLU |
| WT CD80 IgV-Fc (inert) (Fc fusion) | – | – | – | – | – | – | – | – | – | – | – | – | – | IL-2 release, primary T cells; K562/OKT3/PD-L1; 100 nM [3]: 52; IL-2-luciferase RLU, Jurkat + CHO/OKT3/PD-L1 aAPC, 0.6 nM [4]: 458 RLU; IL-2-luciferase RLU, Jurkat + CHO/OKT3/PD-L1 aAPC, 1.9 nM [4]: 486 RLU; IL-2-luciferase RLU, Jurkat + CHO/OKT3/PD-L1 aAPC, 5.6 nM [4]: 511 RLU; IL-2-luciferase RLU, Jurkat + CHO/OKT3/PD-L1 aAPC, 50 nM [4]: 483 RLU; IL-2-luciferase RLU, Jurkat + CHO/OKT3 aAPC (no PD-L1), 5.6 nM [4]: 450 RLU; IL-2-luciferase RLU, Jurkat + CHO/OKT3 aAPC (no PD-L1), 16.7 nM [4]: 444 RLU; IL-2-luciferase RLU, Jurkat + CHO/OKT3 aAPC (no PD-L1), 50 nM [4]: 479 RLU; IL-2-luciferase RLU, Jurkat + K562/OKT3/PD-L1 aAPC, 50 nM [4]: 566 RLU |
| variant CD80 IgV-Fc (inert) E35D/D46V/L85Q (Fc fusion) | – | – | – | – | – | – | – | – | – | – | – | – | – | IL-2 release, primary T cells; K562/OKT3/PD-L1; 10 nM [3]: 102; IL-2 release, primary T cells; K562/OKT3/PD-L1; 100 nM [3]: 1430; IL-2-luciferase RLU, Jurkat + CHO/OKT3/PD-L1 aAPC, 0.6 nM [4]: 611 RLU; IL-2-luciferase RLU, Jurkat + CHO/OKT3/PD-L1 aAPC, 1.9 nM [4]: 1000 RLU; IL-2-luciferase RLU, Jurkat + CHO/OKT3/PD-L1 aAPC, 5.6 nM [4]: 1490 RLU; IL-2-luciferase RLU, Jurkat + CHO/OKT3 aAPC (no PD-L1), 5.6 nM [4]: 511 RLU; IL-2-luciferase RLU, Jurkat + CHO/OKT3 aAPC (no PD-L1), 16.7 nM [4]: 554 RLU; IL-2-luciferase RLU, Jurkat + CHO/OKT3 aAPC (no PD-L1), 50 nM [4]: 720 RLU |
| variant CD80 IgV-Fc (effector) A26E/E35D/M47L/L85Q (Fc fusion) | 1230 | 1590 | 2000 | 2500 | 2640 | 6850 | 8320 | – | 1350 | 1380 | 1420 | 1370 | 1330 | – |
| variant CD80 IgV-Fc (effector) E35D/M43L/L70M (Fc fusion) | 1020 | 1250 | 1620 | 2050 | 2780 | 8020 | 7710 | 10500 | 1350 | 1340 | 1400 | 1340 | 1570 | – |
